Data: patent US20200109197A1

Biological target: recombinant anti-human CD3 antibody with TEV cleavage site in the upper hinge region of mouse IgG1 (mouse) [IgG part: P01868]
Assay: cell-based or functional assay

**Q.** “AcTEV™ Protease (from UniProt P04517 2038-2279) (enzyme)” was tested. Which kappa-positive faction of beads after one hour incubation with the protease, 37° C. did it give?
**A.** 7%

**Q.** What about the kappa-positive faction of beads after one hour incubation with the protease, room temperature of the same substance?
**A.** 19%
